# Results published in article PMC2912378 (PLoS ONE, 2010).
# B1: RelB (endogenous, BV-2 microglial cells) (natural protein, mouse (endogenous in BV-2), UniProt Q04863 1-558, looked up)
# chain: MPSRRAARESAPELGALGSSDLSSLSLTVSRTTDELEIIDEYIKENGFGLDGTQLSEMPRLVPRGPASLSSVTLGPAAPPPPATPSWSCTLGRLVSPGPCPRPYLVITEQPKQRGMRFRYECEGRSAGSILGESSTEASKTLPAIELRDCGGLREVEVTACLVWKDWPHRVHPHSLVGKDCTDGVCRVRLRPHVSPRHSFNNLGIQCVRKKEIEAAIERKIQLGIDPYNAGSLKNHQEVDMNVVRICFQASYRDQQGHLHRMDPILSEPVYDKKSTNTSELRICRINKESGPCTGGEELYLLCDKVQKEDISVVFSTASWEGRADFSQADVHRQIAIVFKTPPYEDLEISEPVTVNVFLQRLTDGVCSEPLPFTYLPRDHDSYGVDKKRKRGLPDVLGELSSSDPHGIESKRRKKKPVFLDHFLPGHSSGLFLPPSALQPADSDFFPASISLPGLEPPGGPDLLDDGFAYDPSAPTLFTMLDLLPPAPPLASAVVGSGGAGATVVESSGPEPLSLDSFAAPGPGDVGTASLVGSNMFPNQYREAAFGGGLLSPGPEAT
# notes: NF-kappa B family member RelB, endogenous in the murine microglial cell line BV-2; source: endogenous, BV-2 whole cell lysate
# Biological target: T1, RelA (p65) (endogenous, BV-2 microglial cells) (mouse (endogenous in BV-2), UniProt Q04207 1-549)
# T1 construct: NF-kappa B family member RelA (p65), endogenous in the murine microglial cell line BV-2; source: endogenous, BV-2 whole cell lysate
# Experiment: co-IP; whole cell lysates of BV-2 cells, untreated or treated with Tat (100nM) for 4h or 8h; immunoprecipitation with a RelA-specific antibody and Protein A/G+ agarose beads, 4°C, washed with ELB lysis buffer; immunoblot with RelB-specific antibody; densitometry normalised to precipitated RelA
# Conditions: partners not purified
# T1 sequence (Q04207 whole entry): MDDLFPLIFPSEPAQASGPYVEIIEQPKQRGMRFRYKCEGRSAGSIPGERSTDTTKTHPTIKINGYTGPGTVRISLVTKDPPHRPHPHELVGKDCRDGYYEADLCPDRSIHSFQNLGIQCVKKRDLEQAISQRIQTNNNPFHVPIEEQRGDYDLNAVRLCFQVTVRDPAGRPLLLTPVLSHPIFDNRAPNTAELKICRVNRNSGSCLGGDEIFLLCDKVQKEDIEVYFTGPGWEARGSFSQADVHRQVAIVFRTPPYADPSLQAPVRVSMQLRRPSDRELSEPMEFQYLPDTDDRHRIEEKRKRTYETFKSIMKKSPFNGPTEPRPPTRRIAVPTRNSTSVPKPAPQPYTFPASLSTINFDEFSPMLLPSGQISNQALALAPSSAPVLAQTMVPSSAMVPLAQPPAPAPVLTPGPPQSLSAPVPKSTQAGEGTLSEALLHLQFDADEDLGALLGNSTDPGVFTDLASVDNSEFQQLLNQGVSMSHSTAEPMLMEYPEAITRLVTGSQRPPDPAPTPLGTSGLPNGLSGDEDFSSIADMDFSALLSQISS
binder,measurement,value
B1,fold increase of co-precipitated RelB (normalised to precipitated RelA) with Tat against untreated cells,4 fold
